# According to paper doi:10.1101/2024.07.30.605799 (bioRxiv, 2024):
# Target: the molecule itself
# Assay: SEC
row,Protein,stoichiometry N
1,"human CAD dihydroorotase (DHO) domain, wild type (domain or fragment, UniProt P27708 1456-1846, looked up, carboxylated lysine K1556) MTSQKLVRLPGLIDVHVHLREPGGTHKEDFASGTAAALAGGITMVCAMPNTRPPIIDAPALALAQKLAEAGARCDFALFLGASSENAGTLGTVAGSAAGLKLYLNETFSELRLDSVVQWMEHFETWPSHLPIVAHAEQQTVAAVLMVAQLTQRSVHICHVARKEEILLIKAAKARGLPVTCEVAPHHLFLSHDDLERLGPGKGEVRPELGSRQDVEALWENMAVIDCFASDHAPHTLEEKCGSRPPPGFPGLETMLPLLLTAVSEGRLSLDDLLQRLHHNPRRIFHLPPQEDTYVEVDLEHEWTIPSHMPFSKAHWTPFEGQKVKGTVRRVVLRGEVAYIDGQVLVPPGYGQDVRKWPQGAVPQLPPSAPATSEMTTTPERPRRGIPGLPD",2
2,"human CAD DHO domain bearing S1538A (domain or fragment, UniProt P27708 1456-1846, looked up) MTSQKLVRLPGLIDVHVHLREPGGTHKEDFASGTAAALAGGITMVCAMPNTRPPIIDAPALALAQKLAEAGARCDFALFLGAASENAGTLGTVAGSAAGLKLYLNETFSELRLDSVVQWMEHFETWPSHLPIVAHAEQQTVAAVLMVAQLTQRSVHICHVARKEEILLIKAAKARGLPVTCEVAPHHLFLSHDDLERLGPGKGEVRPELGSRQDVEALWENMAVIDCFASDHAPHTLEEKCGSRPPPGFPGLETMLPLLLTAVSEGRLSLDDLLQRLHHNPRRIFHLPPQEDTYVEVDLEHEWTIPSHMPFSKAHWTPFEGQKVKGTVRRVVLRGEVAYIDGQVLVPPGYGQDVRKWPQGAVPQLPPSAPATSEMTTTPERPRRGIPGLPD",2
3,"human CAD DHO domain bearing W1581R (domain or fragment, UniProt P27708 1456-1846, looked up) MTSQKLVRLPGLIDVHVHLREPGGTHKEDFASGTAAALAGGITMVCAMPNTRPPIIDAPALALAQKLAEAGARCDFALFLGASSENAGTLGTVAGSAAGLKLYLNETFSELRLDSVVQWMEHFETRPSHLPIVAHAEQQTVAAVLMVAQLTQRSVHICHVARKEEILLIKAAKARGLPVTCEVAPHHLFLSHDDLERLGPGKGEVRPELGSRQDVEALWENMAVIDCFASDHAPHTLEEKCGSRPPPGFPGLETMLPLLLTAVSEGRLSLDDLLQRLHHNPRRIFHLPPQEDTYVEVDLEHEWTIPSHMPFSKAHWTPFEGQKVKGTVRRVVLRGEVAYIDGQVLVPPGYGQDVRKWPQGAVPQLPPSAPATSEMTTTPERPRRGIPGLPD",2
4,"human CAD DHO domain bearing S1538L (domain or fragment, UniProt P27708 1456-1846, looked up, carboxylated lysine K1556) MTSQKLVRLPGLIDVHVHLREPGGTHKEDFASGTAAALAGGITMVCAMPNTRPPIIDAPALALAQKLAEAGARCDFALFLGALSENAGTLGTVAGSAAGLKLYLNETFSELRLDSVVQWMEHFETWPSHLPIVAHAEQQTVAAVLMVAQLTQRSVHICHVARKEEILLIKAAKARGLPVTCEVAPHHLFLSHDDLERLGPGKGEVRPELGSRQDVEALWENMAVIDCFASDHAPHTLEEKCGSRPPPGFPGLETMLPLLLTAVSEGRLSLDDLLQRLHHNPRRIFHLPPQEDTYVEVDLEHEWTIPSHMPFSKAHWTPFEGQKVKGTVRRVVLRGEVAYIDGQVLVPPGYGQDVRKWPQGAVPQLPPSAPATSEMTTTPERPRRGIPGLPD",2
5,"human CAD DHO domain bearing H1687R (domain or fragment, UniProt P27708 1456-1846, looked up) MTSQKLVRLPGLIDVHVHLREPGGTHKEDFASGTAAALAGGITMVCAMPNTRPPIIDAPALALAQKLAEAGARCDFALFLGASSENAGTLGTVAGSAAGLKLYLNETFSELRLDSVVQWMEHFETWPSHLPIVAHAEQQTVAAVLMVAQLTQRSVHICHVARKEEILLIKAAKARGLPVTCEVAPHHLFLSHDDLERLGPGKGEVRPELGSRQDVEALWENMAVIDCFASDRAPHTLEEKCGSRPPPGFPGLETMLPLLLTAVSEGRLSLDDLLQRLHHNPRRIFHLPPQEDTYVEVDLEHEWTIPSHMPFSKAHWTPFEGQKVKGTVRRVVLRGEVAYIDGQVLVPPGYGQDVRKWPQGAVPQLPPSAPATSEMTTTPERPRRGIPGLPD",2

# Target: the molecule itself
# Assay: SEC
# Remark: another data set of the same source
row,Protein,stoichiometry N
1,"human CAD ATC domain bearing P2186S (domain or fragment, UniProt P27708 1917-2225, looked up) LLHSLVGQHILSVQQFTKDQMSHLFNVAHTLRMMVQKERSLDILKGKVMASMFYEVSTRTSSSFAAAMARLGGAVLSFSEATSSVQKGESLADSVQTMSCYADVVVLRHPQPGAVELAAKHCRRPVINAGDGVGEHPTQALLDIFTIREELGTVNGMTITMVGDLKHGRTVHSLACLLTQYRVSLRYVAPPSLRMPPTVRAFVASRGTKQEEFESIEEALPDTDVLYMTRIQKERFGSTQEYEACFGQFILTPHIMTRAKKKMVVMHPMSRVNEISVEVDSDPRAAYFRQAENGMYIRMALLATVLGRF",3
